Results as given in the supplement of paper PMC9112550, “Optimization of the antimicrobial peptide Bac7 by deep mutational scanning” (BMC Biology, 2022).

Each sequence was assayed on Escherichia coli TOP10 (assay: shrunken log2 fold change of peptide-encoding DNA abundance (4.5 h post-induction vs induction); higher = less antimicrobial activity (less host growth inhibition)). Details: time post-induction: 4.5 h; library: site-saturation at positions 5, 18, 19, 20.
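Also: peptides expressed intracellularly from a pBAD plasmid library in pooled LB shake-flask culture, induced with 0.3% L-arabinose, DNA abundance read by NGS, three biological replicates, DESeq2 with apeglm shrinkage.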

| Sequence | shrunken log2 fold change |
| --- | --- |
| RRIRARPPRLPRPRPRPVLNPRP | -0.0316 |
| RRIRARPPRLPRPRPRPVMCPRP | 0.0832 |
| RRIRARPPRLPRPRPRPVNNPRP | -0.223 |
| RRIRARPPRLPRPRPRPVPFPRP | 0.0816 |
| RRIRARPPRLPRPRPRPVQFPRP | -0.0854 |
| RRIRARPPRLPRPRPRPVQVPRP | 0.123 |
| RRIRARPPRLPRPRPRPVSIPRP | 0.119 |
| RRIRARPPRLPRPRPRPVSKPRP | 0.141 |
| RRIRARPPRLPRPRPRPVSNPRP | 0.296 |
| RRIRARPPRLPRPRPRPVWLPRP | 0.399 |
| RRIRARPPRLPRPRPRPVWRPRP | 0.873 |
| RRIRARPPRLPRPRPRPWAPPRP | 0.0486 |
| RRIRARPPRLPRPRPRPWARPRP | 0.0181 |
| RRIRARPPRLPRPRPRPWAWPRP | 0.239 |
| RRIRARPPRLPRPRPRPWCKPRP | 0.102 |
| RRIRARPPRLPRPRPRPWDAPRP | 0.108 |
| RRIRARPPRLPRPRPRPWDEPRP | 0.379 |
| RRIRARPPRLPRPRPRPWDHPRP | -0.00959 |
| RRIRARPPRLPRPRPRPWDRPRP | 0.0339 |
| RRIRARPPRLPRPRPRPWEIPRP | -0.0378 |
| RRIRARPPRLPRPRPRPWFAPRP | 0.212 |
| RRIRARPPRLPRPRPRPWFEPRP | -0.0275 |
| RRIRARPPRLPRPRPRPWFRPRP | 0.133 |
| RRIRARPPRLPRPRPRPWGNPRP | 0.00277 |
| RRIRARPPRLPRPRPRPWNPPRP | 0.126 |

| Sequence | shrunken log2 fold change |
| --- | --- |
| RRIRARPPRLPRPRPRPWNWPRP | 0.376 |
| RRIRARPPRLPRPRPRPWPDPRP | 0.17 |
| RRIRARPPRLPRPRPRPWRCPRP | 0.0472 |
| RRIRARPPRLPRPRPRPWSSPRP | -0.656 |
| RRIRARPPRLPRPRPRPWVSPRP | -0.0266 |
| RRIRARPPRLPRPRPRPWYFPRP | -0.332 |
| RRIRARPPRLPRPRPRPWYHPRP | -0.0138 |
| RRIRARPPRLPRPRPRPWYLPRP | -0.161 |
| RRIRARPPRLPRPRPRPYCCPRP | -0.181 |
| RRIRARPPRLPRPRPRPYCDPRP | -0.425 |
| RRIRARPPRLPRPRPRPYDTPRP | -0.0699 |
| RRIRARPPRLPRPRPRPYDVPRP | -0.0868 |
| RRIRARPPRLPRPRPRPYFRPRP | -0.435 |
| RRIRARPPRLPRPRPRPYGYPRP | -0.294 |
| RRIRARPPRLPRPRPRPYIDPRP | -0.186 |
| RRIRARPPRLPRPRPRPYIRPRP | -0.406 |
| RRIRARPPRLPRPRPRPYIVPRP | -0.882 |
| RRIRARPPRLPRPRPRPYKCPRP | -0.138 |
| RRIRARPPRLPRPRPRPYNFPRP | -0.192 |
| RRIRARPPRLPRPRPRPYNGPRP | -0.0341 |
| RRIRARPPRLPRPRPRPYPEPRP | -0.181 |
| RRIRARPPRLPRPRPRPYPGPRP | 0.0384 |
| RRIRARPPRLPRPRPRPYPKPRP | -0.149 |
| RRIRARPPRLPRPRPRPYPQPRP | -0.166 |
| RRIRARPPRLPRPRPRPYQAPRP | -0.0488 |

| Sequence | shrunken log2 fold change |
| --- | --- |
| RRIRARPPRLPRPRPRPYQCPRP | -0.44 |
| RRIRARPPRLPRPRPRPYQPPRP | 0.589 |
| RRIRARPPRLPRPRPRPYSMPRP | -0.484 |
| RRIRARPPRLPRPRPRPYVIPRP | -0.434 |
| RRIRARPPRLPRPRPRPYVKPRP | -0.539 |
| RRIRARPPRLPRPRPRPYVMPRP | -0.211 |
| RRIRARPPRLPRPRPRPYYPPRP | -0.349 |
| RRIRCRPPRLPRPRPRPAACPRP | 0.202 |
| RRIRCRPPRLPRPRPRPACAPRP | 0.433 |
| RRIRCRPPRLPRPRPRPACKPRP | -0.312 |
| RRIRCRPPRLPRPRPRPADNPRP | -0.219 |
| RRIRCRPPRLPRPRPRPADPPRP | -0.195 |
| RRIRCRPPRLPRPRPRPAEGPRP | 0.14 |
| RRIRCRPPRLPRPRPRPAGDPRP | 0.176 |
| RRIRCRPPRLPRPRPRPAGFPRP | 0.1 |
| RRIRCRPPRLPRPRPRPAHIPRP | -0.0847 |
| RRIRCRPPRLPRPRPRPAHVPRP | 0.019 |
| RRIRCRPPRLPRPRPRPAIIPRP | -0.786 |
| RRIRCRPPRLPRPRPRPAITPRP | -0.372 |
| RRIRCRPPRLPRPRPRPAKVPRP | -0.243 |
| RRIRCRPPRLPRPRPRPANGPRP | -0.0497 |
| RRIRCRPPRLPRPRPRPAPAPRP | 0.84 |
| RRIRCRPPRLPRPRPRPAPSPRP | 0.504 |
| RRIRCRPPRLPRPRPRPAPVPRP | 0.56 |
| RRIRCRPPRLPRPRPRPAQAPRP | 0.147 |
